Results on 3 molecules are retold here after publication PMC12002104, “Identification and Protein Engineering of Galactosidases for the Conversion of Blood Type B to Blood Type O” (Chembiochem, 2025).

In series [1] the test system is T1, O=[N+]([O-])c1ccc(O[C@H]2O[C@H](CO)[C@H](O)[C@H](O)[C@H]2O)cc1.
T1 construct: recombinant, E. coli BL21 Gold (DE3), pET28(a), N-terminal His-tag kept for kinetics (thrombin site); for crystals His-tag cut off at introduced TEV site
In words: purified protein. Type of series: biochemical, Pedobacter panaciterrae.

Substrate in the series “purified protein”: O=[N+]([O-])c1ccc(O[C@H]2O[C@H](CO)[C@H](O)[C@H](O)[C@H]2O)cc1
In words: purified protein. The settings on record: 50 mM sodium phosphate pH 7.5. Type of series: biochemical, Bacteroides fragilis.

Where [2] appears, read: 50 mM sodium phosphate pH 7.5, 25.0 °C.

A word on the Km: it is the substrate concentration at which the rate is half of its maximum. The kcat is the maximal rate divided by the concentration of active sites. For the molecule PpaGal (Pedobacter panaciterrae; W227Y), in series [1] (setting [2]), the Km was 3.43 ± 0.34 mM and the kcat was found to be 0.25 ± 0.01 s⁻¹.

Regarding PpaGal (Pedobacter panaciterrae), in series [1] (50 mM sodium phosphate pH 7.5), the Km is 3.512 ± 0.413 mM.

B1: BfGalB (Bacteroides fragilis NCTC 9343) (protein)
chain: QERVYDISQFGLKANSKKNASPVVRKAIAKIKAECRDGEKVILRFPAGRYNFHEAGSTVREYYISNHDQDNPKKVGIALEDMKNLTIDGQGSEFVFYGRMIPVSLLRSENCVLKNFSIDFEQPHIAQVQVVENDPEKGITFEPAPWVDYRISKDSVFEGLGEGWVMRYSWGIAFDGKTKHVVYNTSDIGCPTKGAFEVAPRRICSPKWKDARLVPGTVVAMRGWGRPTPGIFMSHDVNTSLLDVKVHYAEGMGLLAQLCEDITLDGFGVCLKGDNDPRYFTTQADATHFSGCKGKIVSKNGLYEGMMDDAINVHGTYLKVIKRVDDHTLIGRYMHDQSWGFEWGRPGDDVQFVRSETMELIGKQNQITAIRPYDKGEIRGAREFSITFKEAIDPAINEKSGFGIENLTWTPEVLFAGNTIRNNRARGTLFSTPKKTVVEDNLFDHTSGTAILLCGDCNGWFETGACRDVTIRRNRFINALTNMFQFTNAVISIYPEIPNLKDQQKYFHGGKDGGIVIEDNEFDTFDAPILYAKSVDGLIFRNNVIKTNTEFKPFHWNKDRFLLERVTNVKISE
notes: recombinant, E. coli BL21 Gold (DE3), pET28(a), N-terminal His-tag, thrombin site
Take B1: in “purified protein”, the Michaelis constant (Km) is given as 6.950 ± 0.710 mM and the turnover number (kcat) turned out to be 0.753 ± 0.082 s⁻¹.
